Source: article PMC4623604, “Discovery of Small Molecules that Inhibit the Disordered Protein, p27^Kip1” (Scientific Reports, 2015)
Where no end group is shown, it is not given here.

Biological target: Cdk2/cyclin A complex (human, UniProt P24941 1-298; P20248 173-432)
Experiment: fluorescence polarisation; fluorescence anisotropy; Cdk2/cyclin A binding to p27-D2-FL (20 nM); 25 °C; 20 mM Na phosphate, pH 7, 200 mM NaCl, 3.5 mM TCEP; non-linear regression on the average of three experiments
Details: both partners purified

B1: p27-D2-FL (p27-D2-C99S-R93C labeled with Alexa Fluor 488) (domain or fragment)
chain: RKWNFDFQNHKPLEGKYEWQEVEKGSLPEFYYRPPC(Alexa Fluor 488 C5‑maleimide)PPKGASKVPAQE
notes: p27Kip1 (p27; CDKN1B), human, D2 sub-domain construct, residues 58-105; Cloned in pET28a; also called single-cysteine mutant of p27-D2; source: conjugated with Alexa Fluor488-C5-Maleimide and purified again by HPLC; not shown: 6xHis, N-terminal, cleaved
In the case of B1, the Kd is reported as 73 ± 8 nM.
